Assay results as given in publication PMC5705219, “A map of human PRDM9 binding provides evidence for novel behaviors of PRDM9 and other zinc-finger proteins in meiosis” (eLife, 2017).

Biological target: the molecule itself
Assay: co-IP; direct competition: HEK293T transfected with three constructs, Human and Chimp prey with the same epitope tag and Human or Chimp bait with the complementary tag; IP against the bait tag, western against the prey tag; both directions of HA/V5 tagging

B1: full-length human PRDM9 (B allele), C-terminally tagged with HA or V5 (natural protein)
chain: not shown
notes: synthetic cDNA of the full-length 2,685 bp transcript with 218 synonymous base changes in the zinc-finger exon; An HA and a V5 version were made; tag cassette is linker-TwinStrep-linker-HA/V5-linker-P2A between PRDM9 and YFP; also called Human-HA; Human-V5; source: HEK293T, transfected (pLENTI CMV/TO Puro DEST, FuGENE-HD), in lysate; not shown: HA or V5, C-terminal, kept
With B1 as the protein, how does the “fold pull-down efficiency against Chimp PRDM9 prey on the same Human bait” value read?
The value was over 2 fold.
